# Patent publication US20250197490A1 (HBM ALPHA THERAPEUTICS, published 2025)
# Like-named read-outs stand apart in the source and are kept apart here.
# T1: corticotropin-releasing hormone (CRH) peptide (human and mouse, UniProt P01143 145-185 (rat entry), not fully specified)
# T1 peptide: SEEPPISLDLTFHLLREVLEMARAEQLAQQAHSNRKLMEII
# T2: biotinylated CRH (human and mouse, UniProt P01143 145-185 (rat entry), not fully specified; biotin; which end is not stated for the result (NT-biotin and CT-biotin forms were used))
# T2 construct: also called biotin-CRH; CRH (NT biotin)
# T2 peptide: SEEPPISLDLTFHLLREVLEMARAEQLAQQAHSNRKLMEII
# T3: human UCN2 peptide, biotinylated (human, UniProt Q96RP3 72-109, limits assumed, biotin at N- or C-terminus)
# T3 construct: also called hUCN2 (NT Biotin); hUCN2 (CT Biotin)
# T3 peptide (looked up): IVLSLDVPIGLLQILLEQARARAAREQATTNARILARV
# T4: CRH (C-Terminal Region, NT Biotin) (N-terminal Biotin-K; C-terminal NH2)
# T4 construct: central region plus C-terminal region of CRH; also called C-Terminal CRH; C-Ter-CRH
# T4 peptide: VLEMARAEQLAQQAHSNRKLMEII
# T5: N-Terminal CRH peptide (N-terminal region plus central region, CT biotin) (human and mouse, C-terminal K-Biotin)
# T5 construct: also called N-Ter-CRH
# T5 peptide: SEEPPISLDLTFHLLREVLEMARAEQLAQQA
# T6: CRH (Central Region, NT Biotin) (N-terminal Biotin-K; C-terminal NH2)
# T6 construct: also called Central CRH
# T6 peptide: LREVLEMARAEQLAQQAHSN
# T7: human UCN3 peptide, biotinylated (human, UniProt Q969E3 120-157, biotin at N- or C-terminus)
# T7 construct: also called hUCN3 (NT Biotin); hUCN3 (CT Biotin)
# T7 peptide (looked up): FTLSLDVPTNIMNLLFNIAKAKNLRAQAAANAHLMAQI
# T8: human UCN1 peptide, biotinylated (human, UniProt P55089 83-122, biotin at N- or C-terminus)
# T8 construct: also called hUCN1 (NT Biotin); hUCN1 (CT Biotin)
# T8 peptide (looked up): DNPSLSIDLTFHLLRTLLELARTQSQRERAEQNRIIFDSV
# T9: CRH (Central Region, CT Biotin) (C-terminal K-Biotin)
# T9 construct: also called Central CRH
# T9 peptide: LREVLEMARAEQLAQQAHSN
# Key:
# [1] = biological target: T1, corticotropin-releasing hormone (CRH) …; test: cell-based or functional assay
# [2] = biological target: T1, corticotropin-releasing hormone (CRH) …; test: cell-based or functional assay
# biotinylated CRH [3] = biological target: T2, biotinylated CRH; test: ELISA, CRH (NT biotin)
# Procedure: (§1) Streptavidin (Thermo, Cat: 21125) was diluted in PBS to a concentration of 2 μg/ml. 100 μl of diluted streptavidin was added per well to ELISA microplates, and the plates were incubated overnight at 4° C. […] Subsequently, plates were washed and incubated with HRP-conjugated goat anti-human IgG (H+L) antibody (Jackson, Cat: 109-035-088) at 37° C. for 1 hour. 100 μL of 3,3′,5,5′-tetramethylbenzidine (TMB) substrate (Biopanda, Cat: TMB-S-003) was added, and the plates were incubated at room temperature for 15 minutes. 100 μL of ELISA stopping solution (Solarbio, Cat #: C1058) was added to terminate the reaction, and the optical density at 450 nm (OD450 nm) was determined by an ELISA plate reader (Molecular Devices, Spectra max 384 plus).
# (§2) These potential PTMs were mutated individually either in HCDR2 alone, in LCDR1 alone, or in various combinations of mutations, as detailed in Table 3. […] Most ΔPTM variants retained functional activities.
# biotinylated CRH [4] = biological target: T2, biotinylated CRH; test: ELISA, CRH (NT biotin)
# [5] = biological target: T1, corticotropin-releasing hormone (CRH) …; test: cell-based or functional assay
# [6] = biological target: T1, corticotropin-releasing hormone (CRH) …; test: cell-based or functional assay
# [7] = biological target: T1, corticotropin-releasing hormone (CRH) …; test: cell-based or functional assay
# biotinylated CRH [8] = biological target: T2, biotinylated CRH; test: ELISA, CRH (CT biotin)
# biotinylated CRH [9] = biological target: T2, biotinylated CRH; test: ELISA, CRH (CT biotin)
# biotinylated CRH [10] = biological target: T2, biotinylated CRH; test: ELISA, CRH (NT biotin)
# biotinylated CRH [11] = biological target: T2, biotinylated CRH; test: ELISA, CRH (CT biotin)
# Procedure: as §1, §2
# biotinylated CRH [12] = biological target: T2, biotinylated CRH; test: ELISA, CRH (NT biotin)
# [13] = biological target: T3, human UCN2 peptide, biotinylated; test: ELISA, hUCN2 (NT biotin) and (CT biotin)
# [14] = biological target: T4, CRH (C-Terminal Region, NT Biotin); test: ELISA, CRH C-terminal region peptide (NT biotin)
# Method in brief: (§3)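 Steps: coat with streptavidin 2 μg/ml overnight at 4° C; wash; add HRP-conjugated goat anti-human IgG (H+L), 37° C for 1 hour; develop with TMB at room temperature 15 minutes; stop and measure OD at 450 nm.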
# [15] = biological target: T5, N-Terminal CRH peptide (N-terminal …); test: ELISA, N-Ter-CRH (CT-biotin) on streptavidin
# Method in brief: as §3
# [16] = biological target: T6, CRH (Central Region, NT Biotin); test: ELISA, CRH central region peptide (NT biotin)
# Method in brief: as §3
# [17] = biological target: T7, human UCN3 peptide, biotinylated; test: ELISA, hUCN3 (NT biotin) and (CT biotin)
# [18] = biological target: T1, corticotropin-releasing hormone (CRH) …; test: cell-based or functional assay
# biotinylated CRH [19] = biological target: T2, biotinylated CRH; test: ELISA, CRH (NT biotin)
# Method in brief: as §3
# biotinylated CRH [20] = biological target: T2, biotinylated CRH; test: ELISA, CRH (CT biotin)
# Method in brief: as §3
# [21] = biological target: T8, human UCN1 peptide, biotinylated; test: ELISA, hUCN1 (NT biotin) and (CT biotin)
# Procedure: Streptavidin (Thermo, Cat: 21125) was diluted in PBS with a concentration of 2 μg/mL. 100 μL of diluted streptavidin was added per well to ELISA microplates, and the plates were incubated overnight at 4° C. Plates were blocked with ELISA blocking solution (containing 2% w/v BSA, 0.05% (v/v) Tween-20, pH 7.4 PBS buffer) at 37° C. for 1 hour, and then incubated with either 1 μg/mL hUCN1 (NT Biotin), hUCN1 (CT Biotin), hUCN2 (NT Biotin), hUCN2 (CT Biotin), hUCN3 (NT Biotin), or hUCN3 (CT Biotin) for 1 hour at 37° C. […] Plates were subsequently washed and incubated with HRP-conjugated goat anti-human IgG (H+L) antibody (Jackson, Cat: 109-035-088) at 37° C. for 1 hour. 100 μl of TMB Substrate (Biopanda, Cat: TMB-S-003) was added, and the plates were incubated at room temperature for 15 minutes. 100 μL of ELISA stopping solution (Solarbio, Cat #: C1058) was then added to terminate the reaction, and the OD450 nm was determined by an ELISA plate reader (Molecular Devices, Spectra max 384 plus).
# [22] = biological target: T9, CRH (Central Region, CT Biotin); test: ELISA, CRH central region peptide (CT biotin)
# Method in brief: as §3
binder,measurement,setting,value
"PR004290 (antibody, human IgG1, kappa, V domains shown, human IgG1 wildtype Fc; also called Hybridoma Clone 28b3) VH: EVQLVESGGVLVQPGGSLRLSCAASGFTFSSYWMTWVRQAPGKGLEWVANIKQDGSEKYYVDSVKGRFTISRDNAKNSLFLQMNSLRAEDTAVYYCARTLIFDYWGQGTLVTVSS VL: DIVMTQSPLSLPVTPGEPASISCRSSQSLLHSTGYNSLEWYLQKPGQSPQLLIYLGSNRASGVPDRFSGSGSGTDFTLKISRVEAEDVGIYYCMQTLQTPITFGQGTRLEIKR","IC50 (read off the curve), CRH-induced hCRHR1 luciferase reporter",[1],~3 nM
same,"IC50 (read off the curve), CRH-induced mCRHR1 luciferase reporter",[2],~8 nM
same,EC50 (read off the curve),biotinylated CRH [3],~0.03 nM
same,EC50 (read off the curve),biotinylated CRH [4],~0.05 nM
same,"IC50 (read off the curve), CRH-induced mCRHR1 luciferase reporter",[5],~5 nM
same,"IC50 (read off the curve), CRH-induced hCRHR1 luciferase reporter",[6],~3 nM
same,IC50 in the hCRHR1 reporter assay,[7],~5 nM
same,EC50 (read off the curve),biotinylated CRH [8],~0.01 nM
same,EC50 (read off the curve),biotinylated CRH [9],~0.03 nM
same,EC50 (read off the curve),biotinylated CRH [10],~0.01 nM
same,EC50 (read off the curve),biotinylated CRH [11],~0.05 nM
same,EC50 (read off the curve),biotinylated CRH [12],~0.01 nM
"PR302334-26 (antibody, human IgG1, kappa, V domains shown) VH: EVQLVESGGGLVQPGGSLRLSCAASGFTFSTYAMSWVRQAPGKGLEWVASIRSGGTTYYPDSVKGRFTISRDNSKNSLYLQMNSLRAEDTAVYYCTRGIDWGQGTTVTVSS VL: DIVMTQSPDSLAVSLGERATINCKASQSVNNDVAWYQQKPGQPPRLLIYYASNRYTGVPDRFSGSGSGTDFTLTISSLQAEDLAVYFCQQDYSSWTFGGGTKVEIKR",binding result,[13],no binding (tested: 100 nM)
same,binding result,[14],no binding (tested: 100 nM)
same,EC50,[15],0.029 nM
same,binding result,[16],no binding (tested: 100 nM)
same,binding result,[17],no binding (tested: 100 nM)
same,hCRHR1-Luc 0.5 nM CRH IC50,[18],1.1 nM
same,EC50 (read off the curve),biotinylated CRH [19],~0.03 nM
same,EC50 (read off the curve),biotinylated CRH [20],~0.03 nM
same,binding result,[21],no binding (tested: 100 nM)
same,binding result,[22],no binding (tested: 100 nM)
